In publication PMC11090907 (2024):
Changes are numbered by the printed parent chain. Names and notes keep the numbering of the source. Like-named read-outs stand apart in the source and are kept apart here.

T1: RLuc8-L5-ALFA-tag
T1 chain: SRLEEELRRRLTE

T2: ALFA tag-human Fc
T2 chain: SRLEEELRRRLTE

T3: ALFA tag-human Fc
T3 chain: SRLEEELRRRLTE

B1: GFP2-L5-sdAbALFA WT S57A; E58S; R59G; R65D; D112V (protein)
chain: EVQLQESGGGLVQPGGSLRLSCTASGVTISALNAMAMGWYRQAPGERRVMVAAVASGGNAMYDESVQGRFTVTRDFTNKMVSLQMDNLKPEDTAVYYCHVLEDRVDSFHVYWGQGTQVTVSS
B2: GFP2-L5-sdAbALFA WT S57A; E58S; R59G; R65D (protein)
chain: B1 chain with V110D
B3: GFP2-L5-sdAbALFA WT S57A; E58S (protein)
chain: B1 chain with G57R, D63R, V110D
B4: GFP2-L5-sdAbALFA WT E58S (protein)
chain: B1 chain with A55S, G57R, D63R, V110D
B5: sdAb ALFA WT-TEV-His S57A; E58S; R59G (protein)
chain: B1 chain with D63R, V110D
B6: sdAb ALFA WT-TEV-His S57A; E58S; R59G; R65D (protein)
chain: B1 chain with V110D
B7: sdAb ALFA WT-TEV-His S57A; E58S (protein)
chain: B1 chain with G57R, D63R, V110D
B8: sdAb ALFA WT-TEV-His S57A; E58S; R59G; R65D; D112V (protein)
chain: B1 chain
B9: GFP2-L5-sdAbALFA WT S57A; E58S; R59G (protein)
chain: B1 chain with D63R, V110D
B10: sdAb ALFA WT-TEV-His E58S (protein)
chain: B1 chain with A55S, G57R, D63R, V110D
B11: sdAb ALFA WT-TEV-His (VHH)
VHH: B1 chain with A55S, S56E, G57R, D63R, V110D
B12: sdAb ALFA SER-TEV-His (VHH)
VHH: B1 chain with D63R, V110D
B13: sdAb ALFA SE-TEV-His (VHH)
VHH: B1 chain with G57R, D63R, V110D
B14: sdAb ALFA SERR-TEV-His (VHH)
VHH: B1 chain with V110D
B15: sdAb ALFA E-TEV-His (VHH)
VHH: B1 chain with A55S, G57R, D63R, V110D

Tests used:
RLuc8-L5-ALFA-tag = target: T1, RLuc8-L5-ALFA-tag; assay: BRET donor saturation assay; conditions: chain shown with the change, HEK293T cells, 37°C; for response: Acceptor/Donor ratio 20, parent: est. 26, read off a plot; for other: BRET50: parent: 1.4 ± 0.09; for other: BRETmax: parent: 28.4 ± 0.37
ALFA tag-human Fc [1] = target: T2, ALFA tag-human Fc; assay: SPR; conditions: chain shown with the change; for Kd: room temperature, parent: 5.0 ± 0.07 pM; for response (Response Unit): sdAb at 50 nM, parent: est. 61, read off a plot
ALFA tag-human Fc [2] = target: T3, ALFA tag-human Fc; assay: SPR
ALFA tag-human Fc [3] = target: T3, ALFA tag-human Fc; assay: SPR

Row | Binder | other: BRET50 (RLuc8-L5-ALFA-tag) | other: BRETmax (RLuc8-L5-ALFA-tag) | koff (ALFA tag-human Fc [2]) | also measured
1 | B1 | 12.4 | 3.3 |  | response (RLuc8-L5-ALFA-tag): 2 BRET ratio
2 | B2 | 9.3 | 14 |  | response (RLuc8-L5-ALFA-tag): 9.5 BRET ratio
3 | B3 | 6.2 | 26.7 |  | 
4 | B4 | 2.2 | 28.1 |  | 
5 | B5 |  |  |  | Kd (ALFA tag-human Fc [1]): 2.4 nM; response (Response Unit) (ALFA tag-human Fc [1]): 57
6 | B6 |  |  |  | Kd (ALFA tag-human Fc [1]): 1130 nM; response (Response Unit) (ALFA tag-human Fc [1]): 3.8
7 | B7 |  |  |  | Kd (ALFA tag-human Fc [1]): 1.7 nM
8 | B8 |  |  |  | response (Response Unit) (ALFA tag-human Fc [1]): 0
9 | B9 | 5.2 | 26.4 |  | 
10 | B10 |  |  |  | Kd (ALFA tag-human Fc [1]): 0.8 nM
11 | B11 |  |  | 2.7e-05 s⁻¹ | Kd (ALFA tag-human Fc [3]): 0.005 nM
12 | B12 |  |  | 0.011 s⁻¹ | 
13 | B13 |  |  | 0.0073 s⁻¹ | 
14 | B14 |  |  | 0.026 s⁻¹ | 
15 | B15 |  |  | 0.0039 s⁻¹ | 
